# From the RNAGym collection of RNA variant scans (doi:10.1073/pnas.2313332121)
# Variants at the floor of the assay were thinned out.
# B1: TPR 5TU (parent)
# chain: GGAUCUUCUCGAUCUAACAAAAAAGACAAAUCUGCCACAAAGCUUGAGAGCAUCUUCGGAUGCAGAGGCGGCAGCCUUCGGUGGCGCGAUAGCGCCAACGUUCUCAACUAUGACACGCAAAACGCGUGCUCCGUUGAAUGGAGUUUAUCAUG
# Variants of: B1
# Experiment: polymerase ribozyme fitness, log enrichment relative to wild type (log ratio); higher = more active; in vitro selection for triplet polymerase activity
# In short: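 For each subunit of a heterodimeric triplet polymerase ribozyme, a mutant library was built by PCR and transcribed, then taken through a single in vitro selection round in triplicate. Selection involved annealing to a biotinylated primer, the partner subunit and triplets, incubation frozen at −7 °C, gel excision of extended constructs, capture on streptavidin beads and RT-PCR. Genotypes were retained after Illumina sequencing of inputs and outputs only with ≥10 input reads and ≥1 read in each output. Fitness is defined as the logarithm of a genotype's enrichment relative to wild-type enrichment, using inverse-variance-weighted averages across replicates, with the logarithm taken to base 2.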
row,Variant,polymerase ribozyme fitness (log ratio)
1,GGAUCUUCUCGAUCUAACAAAAAAGACAAAUCUGCCACAAAGCUUGUGAGCAUCUUCGGAUGCAGAGGCGGCAGCCUUCGGUGGCGCGAUAGCGCCAACGGUCUCAACUAUGACAGGCAAAACGCGUGCUCCGUUGAAUGGAGUUUAUCAUG [A47U U101G C116G],-2.38
2,GGAUCUUCUCGAUCUAACAAAAAAGACAAAUCUGCCACAAAGCUUGAAUGCAUCUUCGGAUGCAGAGGCUGCAGACUUCGGUGGCGCAAUAGCGCCAACGUUCUCAACUAUGACACGCAAAACGCGUGCUCCGUUGAAUGGAGUUUAUCAUG [G48A A49U G70U C75A G88A],≤ -4.2
3,GGAUCUUCUCGAUCUAACAAAAAAGACAAAUCUGCCACAAAGCUUGUGAGCAUCUUCGGAUGCAGAGGCGGCAGCCUUCGGUGGCGCGAUAGCGCCAACGUUCUCAACUAUGACACGCAAAACGCGUGCUCCGUUGAAUGAAGUUUAUCAUG [A47U G141A],-1.46
4,GGAUCUUCUCGAUCUAACAAAAAAGACAAAUCUGCCACAAAGCUUGUGAGCAUCAUCGGAUGCAGAGGCGGCAGCCUUCGGUGGCGCGAUAGCGCCAACGUUCUCAACUAUGACACGCAAAACGCGUGCUCCGUUGAAUGGAGUUUAUCAUG [A47U U55A],-0.542
5,GGAUCUUCUCGAUCUAACAAAAAAGACAAAUCUGCCACAAAGCUUGUGAGCAUCGUCGGAUGCAGAGGCGGCAGCCUUCGGUGGCGCGAUAGCGCCAACGUUCUCAACUAUGACACGCAAAACGCGUGCUCCGUUGAAUGGAGUUUAUCAUG [A47U U55G],-1.03
6,GGAUCUUCUCGAUCUAACAAAAAAGACAAAUCUGCCACAAAGCUUGAACGCAACUUCGGAUGCAGAGGCGGCAGCCUUCGGUGGCGCGAUAGCGCCAACAUUCUCAACUAUGACACGCAAAACGCGUGCUCCGUUGAAUGGAGUUUAUCAUG [G48A A49C U53A G100A],≤ -4.2
7,GGAUCUUCUCGAUCUAACAAAAAAGACAAAUCUGCCACAAAGCUUGAAAGCCUCUUCGGAUGCAGAGGCGGCAGCCUUCGGUGGUGCGAUAGCGCCAACGUUCUCAACUAUGACACGCAAAACGCGUGCUCCGUUGAAUGGAGUUUAUCAUG [G48A A52C C85U],-2.93
8,GGAUCUUCUCGAUCUAACAAAAAAGACAAAUCUGCCACAAAGCUUGUGACCAUCUUCGGAUGCAGAGGCGGCAGCCUUCGGUGGCGCGAUAGAGCGAACGUUCUCAACUAUGACACGCAAAACGCGUGCUCCGUUGAAUGGAGUUUAUCAUG [A47U G50C C93A C96G],≤ -4.2
9,GGAUCUUCUCGAUCUAACAAAAAAGACAAAUCUGCCACAAAGCUUGUGAGCAUCUUCGGAUGCAGAGGCGGCAGCCUUCGGUGGCGCGAUAGCGCCAACGUUCUCAACUAUGACACGCAAAACACGUGCUCCGUUGAAUGGAGUUUAUCAUG [A47U G124A],0.304
10,GGAUCUUCUCGAUCUAACAAAAAAGACAAAUCUGCCACAAAGCUUGUGAGCAUCUUCGGAUGCAGAGGCGGCAGCCUUCGGUGCCGCGAUAGUGCCAACGUUCUCAACUAUGACACGCAAAACGCGUGCUCCGUUGAAUGGAGUUUAUCAUG [A47U G84C C93U],≤ -4.2
11,GGAUCUUCUCGAUCUAACAAAAAAGACAAAUCUGCCACAAAGCUUGUGAGCAACUUCGGAUGCAGAGGCGGCAGCCUUCGGUGGCGCGAUAGCGCCAACGUUCUCAACUAUGACACGCAAAACGCGUGCUCCGUUGAAUGGAGUUUAUCAUG [A47U U53A],-1.33
12,GGAUCUUCUCGAUCUAACAAAAAAGACAAAUCUGCCACAAAGCUUGUGAGCAUCUUCGGAUGCAGAGGCGGCAGCCUUCGGUGGCUCGAUAGCGCCAACGUUCUCAACUAUGACACGCAAAACGCGUGCUCCGAUGAAUGGAGUUUAUCAUG [A47U G86U U134A],-3.84
13,GGAUCUUCUCGAUCUAACAAAAAAGACAAAUCUGCCACAAAGCUUGAAAGCGUCUUCGGAUGCAGAGGCGGCAGCCUUCGGUUGCGCGAUAGCGCCAACGAUCUCAACUAUGACACGCAAAACGCGUGCUACGUUGAAUGGAGUUUAACAUG [G48A A52G G83U U101A C131A U148A],≤ -4.2
14,GGAUCUUCUCGAUCUAACAAAAAAGACAAAUCUGCCACAAAGCUUGUGAGCAUCUUCGGAUGCAGAGGCGGCAGCCCUCGGUGGAGCGAUAGGGCCAACGUUCUCAUCUAUGACACGCAAAACGCGUGCUCCGUUGAAUGGAGUUUAUCAUG [A47U U77C C85A C93G A107U],≤ -4.2
15,GGAUCUUCUCGAUCUAACAAAAAAGACAAAUCUGCCACAAAGCUUGUGACCAUCUUCGGAUGCAGAGGCGGCAGCCUUCGGUGGCGCGAUAGCGCCAACGUUCUCAACUAUGACACGCAAUACGCGUGCUCCGUUGAAUGGAGUUUAUCAUG [A47U G50C A121U],-3.92
16,GGAUCUUCUCGAUCUAACAAAAAAGACAAAUCUGCCACAAAGCUUGUGAGCAUCUUCGGAUGCAGAGGCGGCAGCCUUCAGUGGCGCGAUCGCGCCAACGUUCUCAACUAUGACACGCAAAACGCGUGCUCCGUUGAAUGGAGUUUAUCAUG [A47U G80A A91C],≤ -4.2
17,GGAUCUUCUCGAUCUAACAAAAAAGACAAAUCUGCCACAAAGCUUGUGAGCAUCUUCGGAUGCAGAGGCGGCAGCCUUCGGUGGCGCGAUAUCGCCAACGUUCUCAACUAUGACACGCAAAACGCGUGCUCCGUUGAAUGGAGUUUAUCAUG [A47U G92U],-0.338
18,GGAUCUUCUCGAUCUAACAAAAAAGACAAAUCUGCCACAAAGCUUGUGAGCAUCAUCGGAUGCAGAGGCGGCAGCCUUCGGUGGCGCGGUAGCGCCAACGUUCUCAACUAUGACACGCAUAACGCGUGCUCCGUUGAAUGGAGGUUAUCAUG [A47U U55A A89G A120U U144G],-0.697
19,GGAUCUUCUCGAUCUAACAAAAAAGACAAAUCUGCCACAAAGCUUGUGAGCAUCUUCGGAUGCAGAGUCGGCAGCCUUCGGUGGCGCGAUAGCGCCAACGUUCUCAACUAUGACACGCAAAACGCGUGCUCCGUUGAAUGGAGUUUAUCAUG [A47U G68U],≤ -4.2

row,Variant,polymerase ribozyme fitness (log ratio)
1,GGAUCUUCUCGAUCUAACAAAAAAGACAAAUCUGCCACAAAGCUUGUGAGCAUCAUCGGAUGCAGAGGCGGCAGCCUUCGGUGGCGCGAUAGCGCCAACGUUCUCAACUAUGACACGCAAAACGCGUGCUCCGUUGAAUGUAGUUUAUCAUG [A47U U55A G141U],-1.14
2,GGAUCUUCUCGAUCUAACAAAAAAGACAAAUCUGCCACAAAGCUUGAAGGCAUUUUCGGAUGCAGAGGCGGCAGCCUUCGGUGGCGCGAGAUCGCCAAUGUUCUCAACUAUGACACGCAACACGCGUGCUCCGUUGAAUGGAGUUUAUCAAG [G48A A49G C54U U90G G92U C99U A121C U151A],≤ -4.2
3,GGAUCUUCUCGAUCUAACAAAAAAGACAAAUCUGCCACAAAGCUUGUGAGCAUCUACGGAUGCAGAGGCGGCAGCCUUCGGUGGCGCGAUAGCACCAACGUUCUCAACUAUGACACGUAAUACGCGUGCUCCGUUGAAUGGAGUUUAUCAUG [A47U U56A G94A C118U A121U],-0.95
4,GGAUCUUCUCGAUCUAACAAAAAAGACAAAUCUGCCACAAAGCUUGUGAGCAUCUUCGGAAGCAGAGGCGGCAGAUUUCGGUGGCGCUAUAGCGCCAACGUUCUCAACUAUGACACGCAAAACGCGUGCUCCGUUGAAUGGAGUUUAUCAUG [A47U U61A C75A C76U G88U],≤ -4.2
5,GGAUCUUCUCGAUCUAACAAAAAAGACAAAUCUGCCACAAAGCUUGUGAGCAUCUUCGGAUGCAGAGGCGGCAGCCUUCGGUGGCGCGAUAGCGCCAACGUUCUCAACUAUGACACGCAAAACGCCUGCUCCGUUGAAUGGAGUUUAUCAUG [A47U G126C],-0.0812
6,GGAUCUUCUCGAUCUAACAAAAAAGACAAAUCUGCCACAAAGCUUGUCAGCAUCUUCGGAUGCAGAGGCGGCAGCCUUCGGUGGCGCGAUAGCGCCAACGUUCUCAACUAUGACACGCAAAACGCGUGCUCCGUUGAAUGGAGUUUAUCAUG [A47U G48C],-1.39
7,GGAUCUUCUCGAUCUAACAAAAAAGACAAAUCUGCCACAAAGCUUGUGAGCAUCUACGGAUGCAGAGGCGGCAGCCUUCGGUGGCGCGAUAGCGCCAAGGUUCUCAACUAUGACACGCAACACGCGUGCUCCGUUGAAUGGAGUUUAUCAUG [A47U U56A C99G A121C],-2.02
8,GGAUCUUCUCGAUCUAACAAAAAAGACAAAUCUGCCACAAAGCUUGAAAGCAUCUUCGGAUGCAGAGGCGGCAGCCUUCGGUGGCGCGAUAGCGCCAACGUUCUCAACUAUGACACGCAAAACGCGUGCUCCGUUGAAUGGAGUUUAUCAUG [G48A],-0.217
9,GGAUCUUCUCGAUCUAACAAAAAAGACAAAUCUGCCACAAAGCUUGUUAGCAUCUUCGGAUGCAGAGGCGGCAGCCUUCCGUGGCGCGAUAGUGCCAACGUUCUCAACUAUGACACGCAAAACGCGUGCUCCGUUGAAUGGAGUUUAUCAUG [A47U G48U G80C C93U],≤ -4.2
10,GGAUCUUCUCGAUCUAACAAAAAAGACAAAUCUGCCACAAAGCUUGUCAGCAUCUUCGGAUGCAGAGGCGCCAGCCUUCGGUGGCGCGAUAGCACCAACGUUCUCAAGUAUGACACGCAAAACCCGUGCUCCGUUGAAUGAAGUUUAUCAUG [A47U G48C G71C G94A C108G G124C G141A],≤ -4.2
11,GGAUCUUCUCGAUCUAACAAAAAAGACAAAUCUGCCACAAAGCUUGUGAGCAUCUACGGAUGCAGAGGCGGCAGCCUUCGGUGGCGCGAUAGCGUCAACGUUCUCAACUAUGACACGCUAAACGCGUGCUCCGUAGAAUGGAGUUUAUCAUG [A47U U56A C95U A119U U135A],-2.15
12,GGAUCUUCUCGAUCUAACAAAAAAGACAAAUCUGCCACAAAGCUUGUGAGCAUCUUCGGAUCCAGAGGCGGCAGCCUUCGGUGUCGCGAUAGCGCCAACGUUCUCAACUAUGACACGCAAAACGCGUGCUCCGUUGAAUGGAGUUUAUCAUG [A47U G62C G84U],-3.86
13,GGAUCUUCUCGAUCUAACAAAAAAGACAAAUCUGCCACAAAGCUUGAAAGCUUCUUCGGAUGCAGAGGCGGCAGUCUUCGGUGGCGCGAUGGCGCCAACGUUCUCAACUAUGACACGCAAAACGCGUGCUCCGUUGAAUGGAGUUUAUCAUG [G48A A52U C75U A91G],≤ -4.2
14,GGAUCUUCUCGAUCUAACAAAAAAGACAAAUCUGCCACAAAGCUUGUGACCAUCUUCGGAUGCAGAGGCGGCAGCCUUCGGUGGCGCGAUAGCGCCAACGUUCUCAACUAUGACACGCAAAACGCGUGCUCCGUUGAAUGGAGUUUAUCAUG [A47U G50C],-3.22
15,GGAUCUUCUCGAUCUAACAAAAAAGACAAAUCUGCCACAAAGCUUGUAAGCAUCUUCGGAUGCAGAGGCGGCAGCCUUCGGUGGCGCGAUAGCGCCAACGUUCUCAACUAUGACACGCAAAACGCGUGCUCCGUUGAAUGGAGUUGAUCAUG [A47U G48A U146G],-2.73
16,GGAUCUUCUCGAUCUAACAAAAAAGACAAAUCUGCCACAAAGCUUGUGAACAUCUUCGGAUGCAGAGGCGGCAGCCUUCGGUGUCGCGAUAGCGCCAUCGUUCUCAACUAUGACACGCAAAACGCGUGCUCCGUUGAAUGGAGUUUAUCAUG [A47U G50A G84U A98U],-3.28
17,GGAUCUUCUCGAUCUAACAAAAAAGACAAAUCUGCCACAAAGCUUGUGAGCAUCUUCGGAUGCAGAGGCGGCAGCCUUCGGUGGCACGAUAGCGCCAACGUUCUCAACUAUGACACGCAAAACGCGUGCUCCGUUGAAUGGAGUUUAUCAUG [A47U G86A],-1.08
18,GGAUCUUCUCGAUCUAACAAAAAAGACAAAUCUGCCACAAAGCUUGUGAGCAUCUACGGAUGCAGAGGCGGCAGCCUUCGGUGGCGGGAUAGCGCCAACGUUCUCAACUAUGACCCGCAAAACGCGUGCUCCGUUGAAUGAAGUUUAUCAUG [A47U U56A C87G A115C G141A],-3.84
19,GGAUCUUCUCGAUCUAACAAAAAAGACAAAUCUGCCACAAAGCUUGUGAGCAUCUUCGGAUGCAGAGGCGGCAGCCUUCGGUGGCGCGAUAGCACCAACGUUCUCAACUAUGACACGCAAAACGCGUGCUCCGGUGAAUGGAGUUUAUCAUG [A47U G94A U134G],-1.69
